Here are results for 2 molecules from US12584107B2 (dated 2026).

Assay [1] concerns the target T1, NY-ESO-1 peptide on HLA-A*02:01 (human).
T1 peptide: SLLMWITQC
Kind of assay: multimer staining.

For assay [2], the target named is T1, NY-ESO-1 peptide on HLA-A*02:01. As to the kind of experiment: activation reporter or marker.

B1: NY7JSY (TCR, V domains shown)
Valpha: QKEVEQNSGPLSVPEGAIASLNCTYSDRGSQSFFWYRQYSGKSPELIMFIYSNGDKEDGRFTAQLNKASQYVSLLIRDSQPSDSATYLCAVMRAGGFKTIFGAGTRLFVKA
Vbeta: DSGVTQTPKHLITATGQRVTLRCSPRSGDLSVYWYQQSLDQGLQFLIQYYNGEERAKGNILERFSAQQFPDLHSELNLSSLELGDSALYFCASSVVDGEQYFGPGTRLTVT
As to B1, in assay [1], the binding result is “recognises”.

B2: NY7 variant TCR ID 5 (Table A) (TCR, V domains shown)
Valpha: QKEVEQNSGPLSVPEGAIASLNCTYSDRWSQSFFWYRQYSGKSPELIMFIYSNGDKEDGRFTAQLNKASQYVSLLIRDSQPSDSATYLCAVMRAGGFKTIFGAGTRLFVKA
Vbeta: DSGVTQTPKHLITATGQRVTLRCSPRSGDLSVYWYQQSLDQGLQFLIQYYNGEERAKGNILERFSAQQFPDLHSELNLSSLELGDSALYFCASSVVDGEQYFGPGTRLTVT
Consider B2, for which the binding result in assay [2] was “recognises”.
